Experimental data as given in US11618906B2, “Hydroxylation techniques” (HYPHA DISCOVERY LTD., priority 2018, dated 2023).
Positions count from the first letter of the chain named. In names and notes the source's numbering stands.

B1: aluC09M33: cytochrome P450 aluC09 mutant T291I; amino acid sequence SEQ ID NO: 44 (protein, listed as Amycolatopsis lurida)
chain: MTDVEETTATLPLARKCPFSPPPEYERLRRESPVSRVGLPSGQTAWALTRLEDIREMLSSPHFSSDRQSPSFPLMVARQIRREDKPFRPSLIAMDPPEHSRARRDVVGEFTVKRMKALQPRIQQIVDEHLDALLAGPKPADLVQALSLPVPSLVICELLGVPYSDHEFFQSCSSRMLSREVTAEERMTAFEQLENYLDELVTKKEANATEDDLLGRQILKQRETGEADHGELVGLAFLLLIAGHETTANMISLGTVTLLENPDQLAKIKADPGKTLAAIEELLRVFTIAEIATSRFATADVEIGGTLIRAGEGVVGLSNAGNHDPDGFENPDTFDIERGARHHVAFGFGVHQCLGQNLARLELQIVFDTLFRRVPGLRIAVPVDELPFKHDSTIYGLHALPVTW
B2: aluC09M34: cytochrome P450 aluC09 mutant T291M; amino acid sequence SEQ ID NO: 48 (protein, listed as Amycolatopsis lurida)
chain: B1 chain with I291M
B3: aluC09M11: cytochrome P450 aluC09 mutant T291D; amino acid sequence SEQ ID NO: 8 (protein, listed as Amycolatopsis lurida)
chain: B1 chain with I291D
B4: aluC09M19: cytochrome P450 aluC09 mutant T291A; amino acid sequence SEQ ID NO: 24 (protein, listed as Amycolatopsis lurida)
chain: B1 chain with I291A

Test: Hydroxylation of aceclofenac catalysed by cytochrome P450 aluC09 and mutants
Type: biochemical
Conditions: not given
Method: (§1) Lyophilised material of mutants of CYP450aluC09, ferredoxinaluF03 and ferredoxin reductaseSCF15A was made as described in examples 3 and 4 and suspended in water (0.5 mL per vial) and biocatalysis was performed at 27° C. in the following conditions: 50 mM potassium phosphate pH 7.4, 5 mM MgCl2, 0.125 mg/ml substrate compound such as diclofenac (Sigma-Aldrich, UK), Aceclofenac (Tokyo Chemical Industry UK Ltd, UK), Indomethacin (Sigma-Aldrich, UK), Flufenamic acid (Sigma-Aldrich, UK), Napropamide (Sigma-Aldrich, UK), celecoxib (LC Laboratories, USA), valsartan (Tokyo Chemical Industry UK Ltd, UK), ruxolitinib (LC Laboratories, USA), 4-pyrrolidylacetophenone (Sigma-Aldrich, UK), tofacitinib (LC Laboratories, USA), bosentan (CarboSynth Ltd, UK), buparvaquone (MedChemtronica, Sweden), BIRB796 (Stratech Scientific Limited, UK), epothilone B (LC Laboratories, USA), ritonavir (Tokyo Chemical Industry UK Ltd, UK) or tivantinib (MedChemtronica, Sweden), P450AluC09 (concentration as in Table 8), 5 mM G6P, 1 mM NADP, 2 UN/ml G6PDH in a final volume of 100 μL. After 16-20 hours at 200 rpm (5 cm orbital shaker, Kuhner AG, Switzerland), reactions were extracted with an equal volume of acetonitrile, centrifuged to remove precipitated proteins and conversion assessed by UPLC-MS analysis.
(§2) UPLC data was obtained as follows:
(§3) Column: Acquity UPLC BEH Shield RP18 1.7 μm 2.1 mm i.d. 50 mm length
(§4) Solvents: H2O, B: Acetonitrile, both with 0.1% Formic acid
(§5) Detector: Waters Acquity UPLC PDA (UV-Vis detection) and Waters Acquity UPLC QDA (MS)
Chromatograms are provided in FIGS. 5a-c; aceclofenac elutes at 1.80 minutes, hydroxy-aceclofenac acid 1 elutes at 1.64 minutes, hydroxy-aceclofenac acid 2 elutes at 1.60 minutes and dihydroxy-aceclofenac elutes at 1.42 minutes.

Molecule	regioselectivity of hydroxylation of aceclofenac compared to the wild-type enzyme
B1	reversal of the regioselectivity

Same assay, conditions: % by UV peak area at 275 nm; 0.125 mg/ml substrate, 27° C., 16-20 hours

Molecule	Aceclofenac (Substrate) (1.80 mins) [%]	Dihydroxy-Aceclofenac (1.42 mins) [%]	Hydroxy-Aceclofenac (1) (1.64 min) [%]	Hydroxy-Aceclofenac (2) (1.60 min) [%]
B1	30.8	8.8	41.7	18.6
B2	36.6	21.3	15.2	26.8
B3	17.5	35.2	6.3	41.0
B4	6.7	48.3	6.5	38.5

Same assay, conditions: aceclofenac; ratio of UV peak areas at 275 nm

Molecule	Hydroxylated Ratio 2:1
B1	0.4
B2	1.8
B3	6.5
B4	5.9

Test: Hydroxylation of diclofenac catalysed by cytochrome P450 aluC09 and mutants (UPLC-PDA-MS)
Type: biochemical
Conditions: % by UV peak area at 275 nm; 0.125 mg/ml substrate, 27° C., 16-20 hours
Method: as §1, §2, §3, §4, §5
Illustrative results for the hydroxylation of diclofenac by CYP450aluC09 and selected T291x mutants are summarised below in Table 3 with representative chromatograms resented in FIG. 3a-c; retention times: diclofenac 1.85-1.88 minutes, 5-hydroxydiclofenac 1.60-1.63 minutes, 4′-hydroxydiclofenac 1.65-1.68 minutes, 4′,5-dihydroxydiclofenac 1.40-1.42 minutes. The chromatographic retention times and mass spectra coincided with those of authentic samples.

Molecule	4′,5-dihydroxy-diclofenac 1.38 mins [%]	4′-hydroxy-diclofenac (1) 1.62 mins [%]	5-hydroxy-diclofenac (2) 1.58 mins [%]	Diclofenac (Substrate) 1.81 mins [%]
B1	1.1	29.5	6.7	63.3
B2	1.3	35.3	10.4	53.6
B3	2.3	25.3	25.1	48.3
B4	2.4	50.0	14.2	34.8

Same assay, conditions: diclofenac

Molecule	regioselectivity of hydroxylation (product ratio 4′-hydroxydiclofenac : 5-hydroxydiclofenac)
B1	over four-fold

Same assay, conditions: diclofenac; ratio of UV peak areas at 275nm

Molecule	Hydroxylated Ratio hydroxy 1:hydroxy 2
B1	4.4
B2	3.4
B3	1.0
B4	3.5

Test: Metabolism of celecoxib by P450 aluC09 and mutants
Type: biochemical
Conditions: percent of substrate being converted; 0.125 mg/ml, 27° C., 16-20 hours; [CYP] per enzyme as in Table 8
Method: as §1
(§6) However, of particular note when considering P450 concentration are the results for mutants M12, M20 and M34, as well as the deleterious impact on the range of substrate utility in mutants M39 and M40.

Molecule	% conversions (avg) Celecoxib [%]
B1	2.8
B2	6.8
B3	3.2
B4	4.5

Test: Metabolism of bosentan by P450 aluC09 and mutants
Type: biochemical
Conditions: percent of substrate being converted; 0.125 mg/ml, 27° C., 16-20 hours; [CYP] per enzyme as in Table 8
Method: as §1, §6

Molecule	% conversions (avg) Bosentan [%]
B1	98.9
B2	99
B3	100

Test: Metabolism of valsartan by P450 aluC09 and mutants
Type: biochemical
Conditions: percent of substrate being converted; 0.125 mg/ml, 27° C., 16-20 hours; [CYP] per enzyme as in Table 8
Method: as §1, §6

Molecule	% conversions (avg) Valsartan [%]
B1	12.4
B2	43.2
B3	26

Test: Hydroxylation / de-N-ethylation of napropamide catalysed by cytochrome P450 aluC09 and mutants
Type: biochemical
Conditions: % by UV peak area at 275 nm; 0.125 mg/ml substrate, 27° C., 16-20 hours
Method: as §1, §2, §3, §4, §5
Napropamide elutes at 1.76 minutes, unidentified metabolite (−2 Da) elutes at 1.90 minutes, desethyl-napropamide elutes at 1.62 minutes, hydroxy-napropamide 1 elutes at 1.53 minutes and hydroxy-napropamide 2 elutes at 1.52 minutes and the desethyl-hydroxy-napropamide product elutes at 1.41 minutes.

Molecule	Desethyl Napropamide (1.62 min) [%]	Desethyl-hydroxy-Napropamide (1.41 min) [%]	Hydroxy-Napropamide (1) (1.53 min) [%]	Hydroxy-Napropamide (2), (1.52 min) [%]	M-2Da (unidentified) (1.89 min) [%]	Napropamide (substrate) [%]
B1	30.6	5.7	1.8	4.1	5.1	56.0
B2	40.7	5.3	3.4	3.7	5.3	44.0
B3	36.6	8.7	1.5	3.1	6.7	47.6
B4	50.1	4.9	2.3	3.9	6.1	34.3

Same assay, conditions: napropamide; ratio of UV peak areas

Molecule	Hydroxylated Ratio 2:1
B1	2.3
B2	1.1
B3	2.1
B4	1.7

Test: Metabolism of buparvaquone by P450 aluC09 and mutants
Type: biochemical
Conditions: percent of substrate being converted; 0.125 mg/ml, 27° C., 16-20 hours; [CYP] per enzyme as in Table 8
Method: as §1, §6

Molecule	% conversions (avg) Buparvaquone [%]
B1	8.2
B2	11.6
B3	15.8
B4	17.1

Test: Metabolism of BIRB796 by P450 aluC09 and mutants
Type: biochemical
Conditions: percent of substrate being converted; 0.125 mg/ml, 27° C., 16-20 hours; [CYP] per enzyme as in Table 8
Method: as §1, §6

Molecule	% conversions (avg) BIRB796 [%]
B1	13.5
B2	18
B4	16.6

Test: Metabolism of ruxolitinib by P450 aluC09 and mutants
Type: biochemical
Conditions: percent of substrate being converted; 0.125 mg/ml, 27° C., 16-20 hours; [CYP] per enzyme as in Table 8
Method: as §1, §6

Molecule	% conversions (avg) Ruxolitinib [%]
B1	30.6
B3	35.7
B4	50.8

Test: Metabolism of tofacitinib by P450 aluC09 and mutants
Type: biochemical
Conditions: percent of substrate being converted; 0.125 mg/ml, 27° C., 16-20 hours; [CYP] per enzyme as in Table 8
Method: as §1, §6

Molecule	% conversions (avg) Tofacitinib [%]
B1	1.1
B2	3.1
B3	1.4
B4	0

Test: Metabolism of epothilone B by P450 aluC09 and mutants
Type: biochemical
Conditions: percent of substrate being converted; 0.125 mg/ml, 27° C., 16-20 hours; [CYP] per enzyme as in Table 8
Method: as §1, §6

Molecule	% conversions (avg) Epothilone B [%]
B1	21.8
B2	30.7
B3	8.5
B4	4.5

Test: Metabolism of ritonavir by P450 aluC09 and mutants
Type: biochemical
Conditions: percent of substrate being converted; 0.125 mg/ml, 27° C., 16-20 hours; [CYP] per enzyme as in Table 8
Method: as §1, §6

Molecule	% conversions (avg) Ritonavir [%]
B1	41.3
B2	50.3
B3	57.3
B4	65.4

Test: Metabolism of tivantinib by P450 aluC09 and mutants
Type: biochemical
Conditions: percent of substrate being converted; 0.125 mg/ml, 27° C., 16-20 hours; [CYP] per enzyme as in Table 8
Method: as §1, §6

Molecule	% conversions (avg) Tivantinib [%]
B1	29.6
B2	59.1
B3	34.2
B4	26.1

Test: Metabolism of 4-pyrrolidylacetophenone by P450 aluC09 and mutants
Type: biochemical
Conditions: percent of substrate being converted; 0.125 mg/ml, 27° C., 16-20 hours; [CYP] per enzyme as in Table 8
Method: as §1, §6

Molecule	% conversions (avg) 4-pyrrolidylacetophenone [%]
B1	7.9
B2	7.3
B3	21.4
B4	0.7

Test: Hydroxylation of flufenamic acid catalysed by cytochrome P450 aluC09 and mutants
Type: biochemical
Conditions: % by UV peak area at 275 nm; 0.125 mg/ml substrate, 27° C., 16-20 hours
Method: as §1, §2, §3, §4, §5
Flufenamic acid elutes at 1.93 minutes, hydroxy-flufenamic acid 1 elutes at 1.68 minutes and hydroxy-flufenamic acid 2 elutes at 1.65 minutes.

Molecule	Flufenamic Acid (Substrate) 1.93 mins [%]	Hydroxy-Flufenamic Acid (1) 1.69 mins [%]	Hydroxy-Flufenamic Acid (2) 1.65 mins [%]
B1	98.3	1.0	0.6
B2	94.0	3.8	2.2
B3	94.7	3.4	1.9
B4	90.4	5.8	3.8

Same assay, conditions: flufenamic acid; ratio of UV peak areas at 275 nm

Molecule	Hydroxylated Ratio 1:2
B1	1.6
B2	1.7
B3	1.8
B4	1.5

Test: O-demethylation of indomethacin catalysed by cytochrome P450 aluC09 and mutants
Type: biochemical
Conditions: % by UV peak area at 275 nm; 0.125 mg/ml substrate, 27° C., 16-20 hours
Method: as §1, §2, §3, §4, §5

Molecule	Indomethacin (1.74 mins) [%]	O-demethyl-Indomethacin (1.52 mins) [%]
B1	92.8	7.2
B2	96.2	3.8
B3	92.6	7.4
B4	93.5	6.5
